The results in this text go back to patent publication US20030077318A1.

Assay [1] concerns the target T1, soluble H-2K^b (K^bsol), heterodimer of truncated K^b heavy chain and murine β-2 microglobulin, purified empty from Drosophila cells (murine), P01901.
T1 chain 1: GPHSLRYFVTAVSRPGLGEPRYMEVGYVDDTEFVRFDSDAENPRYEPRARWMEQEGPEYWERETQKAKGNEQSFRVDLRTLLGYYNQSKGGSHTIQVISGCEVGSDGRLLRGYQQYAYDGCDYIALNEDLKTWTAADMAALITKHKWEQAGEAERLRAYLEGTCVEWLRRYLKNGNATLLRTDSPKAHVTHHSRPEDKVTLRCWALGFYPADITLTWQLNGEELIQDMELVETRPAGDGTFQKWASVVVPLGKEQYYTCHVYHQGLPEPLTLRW
T1 chain 2: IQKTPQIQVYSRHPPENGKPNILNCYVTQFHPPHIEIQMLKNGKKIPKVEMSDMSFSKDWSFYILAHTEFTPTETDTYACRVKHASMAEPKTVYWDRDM
Briefly: competitive RIA against [^125I]VSV-8 on K^bsol, P30 gel filtration, 23° C.

Assay [2] concerns the target T1, soluble H-2K^b (K^bsol), heterodimer of …. Description: competitive RIA against [^125I]VSV-8 on K^bsol.

B1: OVA-24 (peptide)
chain: EQLESIINFEKLTEWTSSNVMEER
modifications: not checked
For orientation: Kd means the concentration at which binding is half-saturated. As for B1, the Kd in assay [1] was determined as 71 µM. Also, the fold lower affinity than OVA-8 in assay [2] is above 10000 fold.
